Consider 19 sequences from the supplement of paper PMC9170038.

Series [1] concerns MS2 coat protein. In words: apparent KD of MS2 coat protein, switch OFF state (with FMN for OFF switches, without FMN for ON switches); designed switch direction (-1 OFF switch, 1 ON switch): 1; higher = weaker reporter binding. The settings on record: FMN input: 0 or 200 uM; Eterna round: R93 (includes R88 designs). The method in brief: (§1)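 Binding of SNAP-549-labelled MS2 coat protein was measured on designed RNA switches transcribed on-chip from Illumina sequencing clusters. The protein rose in twofold steps from 0.7 or 1.5 nM to 3 µM, with 0.8–1.5 h per step early on and 10–20 min per step later, in 100 mM Tris-HCl pH 7.5, 80 mM KCl, 4 mM MgCl2, without or with constant ligand. Each design's apparent KD is the median of fits to its normalised cluster binding curves.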

For series [2], the system named is MS2 coat protein. In words: apparent KD of MS2 coat protein, switch ON state; designed switch direction (-1 OFF switch, 1 ON switch): 1; higher = weaker reporter binding. The settings on record: FMN input: 0 or 200 uM; Eterna round: R93 (includes R88 designs). The method in brief: as §1

In the case of “AAAAGACAUGAGGAUCACCCAUGUAAAAACGUAGGAGGAUAUGUCGUGAAAAAAGACUUGGCAGAAGGCCUGUGUC [SS1 - 39]”, the “apparent KD of MS2 coat protein” value in series [1] turned out to be 50.5 nM; in series [2], 30 nM.

As to “AAAAGACAUGAGGAUCACCCAUGUAAAGACGUGGGAGGAUAUGUAUGGAAACCAGACUGUACAGAAGGCCUCUGUC [SS1 - 72]”, the “apparent KD of MS2 coat protein” value in series [1] was 243 nM; in series [2], 165 nM.

On to “AAAAGACAUGAGGAUCACCCAUGUCAAAACGUAGGAGGAUAUGUAUGGAAACCAUACUGUACAGAAGGCCUUUGUC [SS1 - 77]”, for which the “apparent KD of MS2 coat protein” value in series [1] was found to be 14.2 nM; in series [2] it was 14 nM.

As to “AAAAGACAUGAGGAUCACCCAUGUCAAAACGUAGGAGGAUAUGUCGUGAAAAAAGACUUGACAGAAGGCCUGUGUC [SS1 - 36]”, the “apparent KD of MS2 coat protein” value in series [1] is 17.1 nM; in series [2], 15.8 nM.

As to “AAACCACAUGAGGAUCACCCAUGUAAAAAAAACACAGGAUAUGGAAACACGAAAGUGAAACCAGAAGGGUGAAAAA [77%, Mat - Mod of Eli, 26]”, the entries for the “apparent KD of MS2 coat protein” value in series [1] and in series [2] were 26.2 nM and 18.4 nM, respectively.

“AAAGAAAAACUAGAGGAUAUUUGAAUGGUAACAUGAGGAUCACCCAUGUGAAGAAAGGAACAUGAGGAGAAGGCUAGAAGAAAAA [JL Nando mod 16]”: the results for the “apparent KD of MS2 coat protein” value in series [1] and in series [2] were 74.7 nM and 17.5 nM, respectively.

As to “AAAGAAUGAAGGCAGGAUAUGUGAAAAAAAACAUGAGGAUCACCCAUGUAAUAAAUGGGUACAAAACAGAAGGGCCAAGAAACAA [SS 2 Tesla 3]”, the entries for the “apparent KD of MS2 coat protein” value in series [1] and in series [2] were 700 nM and 380 nM, respectively.

Regarding “AAAGACAUAGUUCAGGAUAUGGUAAUAGUCACAUGAGGAUCACCCAUGUGCAUUUAUAUGCGCGAUCAGAAGGGAGGUAGAUAAA [SameState2 Malc#17]”, the entries for the “apparent KD of MS2 coat protein” value in series [1] and in series [2] were 21.5 nM and 24.9 nM, respectively.

In the case of “AAAUAAAUGACUCAGGAUAUGUCAGAGAAAACAUGAGGAUCACCCAUGUAAUAAUAACAUGUGUGACAGAAGGGAGUCAAUAAAU [LROPPY Same State 2 - v01_deltaG=.6]”, the figures for the “apparent KD of MS2 coat protein” value in series [1] and in series [2] were 15 nM and 27.2 nM, respectively.

Take “AAAUAAAUGACUGAGGAUAUAUCGAUGAAAACAUGAGGAUCACCCAUGUGAUAAUAAAAAGGGUGAUAGAAGGUAGUCAACAAAC [Mod 11 of Pariah 4 by Hyphema in Round 1]”: the figures for the “apparent KD of MS2 coat protein” value in series [1] and in series [2] were 211 nM and 52.1 nM, respectively.

For the sequence “AAAUAUAAAGACUAGGAUAUACUAAAAUAAACAUGAGGAUCACCCAUGUAAAAAAUAAAACUCAUGUAGAAGGAGUAAAUAUAAA [ss2 10th]”, the “apparent KD of MS2 coat protein” value in series [1] was 15.5 nM; in series [2], 13.5 nM.

With “AAAUGAUCAUGUGAGGAUAUCCAUAAUAAAACAUGAGGAUCACCCAUGUAUAGAUAAUAAUAAUGGGAGAAGGCACAUGAUCAAU [Mat - Same state - Mayanna Mod - D103]”, the “apparent KD of MS2 coat protein” value came to 17.2 nM in series [1] and 20 nM in series [2].

For “AACAAUCUAUCUGAGGAUAUCAAGUCAAAGACAUGAGGAUCACCCAUGUGCAGGAAAACUGCAUUUGAGAAGGCAGAUAGAUUGA [SS2: 1108]”, the “apparent KD of MS2 coat protein” value was 12.1 nM in series [1] and 10.3 nM in series [2].

For “AACAAUCUAUCUGAGGAUAUCAUGUCAAAGACAUGAGGAUCACCCAUGUAGCAGGAAACUGCAUAUGAGAAGGCAGAUAGAUUGA [SS2: 1118]”, the “apparent KD of MS2 coat protein” value in series [1] was 166 nM; in series [2], 16.3 nM.

Regarding “AACAAUCUAUCUGAGGAUAUCAUGUCAAAGACAUGAGGAUCACCCAUGUUGCAGGAAACUGCUCAUGAGAAGGCAGAUAGAUUGA [SS2: 1129]”, the “apparent KD of MS2 coat protein” value in series [1] worked out at 828 nM; in series [2], 41 nM.

“AACAAUCUAUCUGAGGAUAUGAUGUCAAAGACAUGAGGAUCACCCAUGUCCAGGAAAACUGGAUAUCAGAAGGCAGAUAGAUUGA [SS2: 1104]”: the “apparent KD of MS2 coat protein” value in series [1] was 12.9 nM; in series [2], 10.2 nM.

“AACAAUCUAUCUGAGGAUAUGUGUCGAAAGACAUGAGGAUCACCCAUGUAAAAACAUGGAAAAUCACAGAAGGCAGAUAGAUUGA [SS2: 1145]”: the “apparent KD of MS2 coat protein” value is 1790 nM in series [1] and 127 nM in series [2].

Consider “AACCAACAUGAGGAUCACCCAUGUCAACCCAAGCGAGGAUAUCGGAGAAUAACAAUGGGACGAGAAGGCGCGACCU [ss1-2]”, for which the “apparent KD of MS2 coat protein” value was 36.9 nM in series [1] and 34.4 nM in series [2].

Turning to “AACCAACAUGAGGAUCACCCAUGUCUACAGGAUUAAGGAUAUGGGCAGGGCUUCCCUGCACUAGAAGGUGAUCCAA [Enonenen]”, the “apparent KD of MS2 coat protein” value in series [1] was 52.3 nM; in series [2], 409 nM.
